Assay results published in article PMC11667226 (Theranostics, 2025).
Where two headings read alike, the source gives them in different places. Non-standard residues stand in square brackets, D forms with d. Residues, ends and D or L forms follow the SMILES beside them. *: point of attachment. X1 = CC1(C)C(=CC=CC=CC=CC2=[N+](CCCCCC(=O)*)c3ccc4ccccc4c3C2(C)C)N(CCCCS(=O)(=O)[O-])c2ccc3ccccc3c21; Cha = N[C@@H](CC1CCCCC1)C(=O)O

Description: ECGs were taken at baseline, 1 hr ± 15 min, and 44 hrs ± 6 h post-injection. Blood samples (including lever and kidney parameters) were sampled at baseline, 12 hrs ± 4 hrs, and 44 hrs ± 6 hrs post-injection. All laboratory analyses were performed by the Department of Biochemistry at Rigshospitalet. AE assessments were graded according to the National Cancer Institute “Common Terminology Criteria for Adverse Events (CTCAE)” version 5.0. There was no data monitoring committee in this trial.
[1] = FG001 36 mg i.v., n = 4, CTCAE v5.0

## CC(C)C[C@H](NC(=O)[C@H](Cc1ccc(O)cc1)NC(=O)[C@@H](CCCNC(=N)N)NC(=O)[C@@H](CO)NC(=O)[C@H](Cc1ccccc1)NC(=O)[C@H](CC1CCCCC1)NC(=O)[C@H](CC(=O)O)NC(=O)[C@H](CCC(=O)O)NC(=O)[C@H](CCC(=O)O)NC(=O)CCCCC[N+]1=C(C=CC=CC=CC=C2N(CCCCS(=O)(=O)[O-])c3ccc4ccccc4c3C2(C)C)C(C)(C)c2c1ccc1ccccc21)C(=O)N[C@@H](Cc1c[nH]c2ccccc12)C(=O)N[C@@H](CO)C(=O)O [FG001, ICG-Glu-Glu-AE105] (X1-EED[Cha]F[dS][dR]YLWS-OH; N-terminus and C-terminus assumed)
FG001 36 mg i.v., N=4
  TEAE Blood bilirubin increased: No. events: 4
  TEAE Blood bilirubin increased: No. subjects (%): 4 (100.0%)
  TEAE Blood creatinine increased: No. events: 1
  TEAE Blood creatinine increased: No. subjects (%): 1 (25.0%)
  TEAE Dysgeusia: No. events: 0
  TEAE Dysgeusia: No. subjects (%): 0 (0.0%)
  TEAE GGT increased: No. events: 1
  TEAE GGT increased: No. subjects (%): 1 (25.0%)
  TEAE Hypalbuminaemia: No. events: 1
  TEAE Hypalbuminaemia: No. subjects (%): 1 (25.0%)
  TEAE Hyperglycaemia: No. events: 1
  TEAE Hyperglycaemia: No. subjects (%): 1 (25.0%)
  TEAE Hypertension: No. events: 1
  TEAE Hypertension: No. subjects (%): 1 (25.0%)
  TEAE Hyponatraemia: No. events: 0
  TEAE Hyponatraemia: No. subjects (%): 0 (0.0%)
  TEAE Hypotension: No. events: 0
  TEAE Hypotension: No. subjects (%): 0 (0.0%)
  TEAE Hypothermia: No. events: 2
  TEAE Hypothermia: No. subjects (%): 1 (25.0%)
  TEAE Pneumonia: No. events: 0
  TEAE Pneumonia: No. subjects (%): 0 (0.0%)
  TEAE SOC General disorders and administration site conditions: No. events: 2
  TEAE SOC General disorders and administration site conditions: No. subjects (%): 1 (25.0%)
  TEAE SOC Infections and infestations: No. events: 0
  TEAE SOC Infections and infestations: No. subjects (%): 0 (0.0%)
  TEAE SOC Investigations: No. events: 9
  TEAE SOC Investigations: No. subjects (%): 4 (100.0%)
  TEAE SOC Metabolism and nutrition disorders: No. events: 2
  TEAE SOC Metabolism and nutrition disorders: No. subjects (%): 1 (25.0%)
  TEAE SOC Nervous system disorders: No. events: 0
  TEAE SOC Nervous system disorders: No. subjects (%): 0 (0.0%)
  TEAE SOC Vascular disorders: No. events: 1
  TEAE SOC Vascular disorders: No. subjects (%): 1 (25.0%)
FG001 36 mg i.v., n = 4
  FG001 related TEAEs: No. events: 0
  FG001 related TEAEs: No. patients (%): 0 (0%)
  SAEs: No. events: 0
  SAEs: No. patients (%): 0 (0%)
  TEAE: No. events: 14
  TEAE: No. patients (%): 4 (100%)
[1]
  TEAE Mild (Grade 1): No. events: 8
  TEAE Mild (Grade 1): No. patients (%): 1 (25.0%)
  TEAE Moderate (Grade 2): No. events: 3
  TEAE Moderate (Grade 2): No. patients (%): 2 (50.0%)
  TEAE Severe (Grade 3): No. events: 3
  TEAE Severe (Grade 3): No. patients (%): 1 (25.0%)
All doses, N = 17, CTCAE v5.0
  TEAE Mild (Grade 1): No. events: 24
  TEAE Mild (Grade 1): No. patients (%): 7 (41.2%)
  TEAE Moderate (Grade 2): No. patients (%): 8 (47.1%)
  TEAE Severe (Grade 3): No. patients (%): 1 (5.9%)
All doses, N=17
  FG001 related TEAEs: No. events: 0
  FG001 related TEAEs: No. patients (%): 0 (0%)
  SAEs: No. events: 0
  SAEs: No. patients (%): 0 (0%)
  TEAE ALT increased: No. events: 1
  TEAE ALT increased: No. subjects (%): 1 (5.9%)
  TEAE AST increased: No. events: 3
  TEAE AST increased: No. subjects (%): 3 (17.6%)
  TEAE Blood ALP increased: No. events: 1
  TEAE Blood ALP increased: No. subjects (%): 1 (5.9%)
  TEAE Blood bilirubin increased: No. events: 7
  TEAE Blood bilirubin increased: No. subjects (%): 7 (41.2%)
  TEAE Blood creatinine increased: No. events: 2
  TEAE Blood creatinine increased: No. subjects (%): 2 (11.8%)
  TEAE Dysgeusia: No. events: 1
  TEAE GGT increased: No. events: 1
  TEAE GGT increased: No. subjects (%): 1 (5.9%)
  TEAE Hypalbuminaemia: No. events: 10
  TEAE Hypalbuminaemia: No. subjects (%): 10 (58.8%)
  TEAE Hyperglycaemia: No. events: 2
  TEAE Hyperglycaemia: No. subjects (%): 2 (11.8%)
  TEAE Hypertension: No. events: 2
  TEAE Hypertension: No. subjects (%): 2 (11.8%)
  TEAE Hyponatraemia: No. events: 1
  TEAE Hyponatraemia: No. subjects (%): 1 (5.9%)
  TEAE Hypotension: No. events: 1
  TEAE Hypotension: No. subjects (%): 1 (5.9%)
  TEAE Hypothermia: No. events: 3
  TEAE Pneumonia: No. events: 1
  TEAE Pneumonia: No. subjects (%): 1 (5.9%)
  TEAE SOC General disorders and administration site conditions: No. events: 3
  TEAE SOC Infections and infestations: No. events: 1
  TEAE SOC Investigations: No. events: 15
  TEAE SOC Investigations: No. subjects (%): 9 (52.9%)
  TEAE SOC Metabolism and nutrition disorders: No. events: 13
  TEAE SOC Metabolism and nutrition disorders: No. subjects (%): 10 (58.8%)
  TEAE SOC Nervous system disorders: No. events: 1
  TEAE SOC Vascular disorders: No. events: 3
  TEAE SOC Vascular disorders: No. subjects (%): 3 (17.6%)
  TEAE: No. events: 36
  TEAE: No. patients (%): 16 (94.1%)
All doses, Table S1
  TEAE Alanine aminotransferase increased, Grade 3: No. events: 1
  TEAE Alkaline phosphatase increased, Grade 1: No. events: 1
  TEAE Aspartate aminotransferase increased, Grade 1: No. events: 2
  TEAE Aspartate aminotransferase increased, Grade 3: No. events: 1
  TEAE Blood bilirubin increased, Grade 1: No. events: 5
  TEAE Blood bilirubin increased, Grade 2: No. events: 2
  TEAE Creatinine increased, Grade 1: No. events: 2
  TEAE Dysgeusia (salty taste), Grade 1: No. events: 1
  TEAE GGT increased, Grade 3: No. events: 1
  TEAE Hyperglycemia, Grade 1: No. events: 2
  TEAE Hypertension, Grade 2: No. events: 2
  TEAE Hypoalbuminemia, Grade 1: No. events: 6
  TEAE Hypoalbuminemia, Grade 2: No. events: 4
  TEAE Hyponatremia, Grade 1: No. events: 1
  TEAE Hypotension, Grade 1: No. events: 1
  TEAE Hypothermia, Grade 1: No. events: 3
  TEAE Pneumonia, Grade 2: No. events: 1
In vivo
  Findings related to FG001 administration at physical examinations: No abnormal findings
